According to US20250049970A1, “DLL3 TARGETING PEPTIDES AND CONSTRUCTS THEREOF” (MARIANA ONCOLOGY INC., priority 2023, published 2025):
Bridges are numbered along the chain shown (N, C = ends). [ ]: non-standard residue; d: D form.

T1: DLL3 (target ligand immobilized on a SA sensor chip via streptavidin capture) (Homo sapiens (Human), UniProt Q9NYJ7 27-492, limits assumed)
T1 sequence: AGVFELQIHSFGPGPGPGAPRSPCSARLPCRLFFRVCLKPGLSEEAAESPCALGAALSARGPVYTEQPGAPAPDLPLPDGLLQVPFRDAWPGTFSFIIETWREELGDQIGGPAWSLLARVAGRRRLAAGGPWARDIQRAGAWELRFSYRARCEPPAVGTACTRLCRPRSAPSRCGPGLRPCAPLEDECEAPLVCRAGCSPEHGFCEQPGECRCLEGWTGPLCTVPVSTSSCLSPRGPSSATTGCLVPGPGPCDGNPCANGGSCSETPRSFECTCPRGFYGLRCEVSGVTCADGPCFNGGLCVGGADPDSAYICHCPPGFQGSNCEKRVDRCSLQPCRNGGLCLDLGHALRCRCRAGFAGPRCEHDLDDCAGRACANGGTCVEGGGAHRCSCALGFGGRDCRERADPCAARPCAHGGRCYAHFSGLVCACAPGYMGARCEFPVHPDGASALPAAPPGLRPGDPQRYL

B1: SEQ ID NO 81 (peptide)
peptide: Ac-[dA]WTICNNWHDCWP-NH2
modifications: disulfide 5-11
SMILES: CC[C@H](C)[C@H](NC(=O)[C@@H](NC(=O)[C@H](Cc1c[nH]c2ccccc12)NC(=O)[C@@H](C)NC(C)=O)[C@@H](C)O)C(=O)N[C@H]1CSSC[C@@H](C(=O)N[C@@H](Cc2c[nH]c3ccccc23)C(=O)N2CCC[C@H]2C(N)=O)NC(=O)[C@H](CC(=O)O)NC(=O)[C@H](Cc2c[nH]cn2)NC(=O)[C@H](Cc2c[nH]c3ccccc23)NC(=O)[C@H](CC(N)=O)NC(=O)[C@H](CC(N)=O)NC1=O
B2: SEQ ID NO 83 (peptide)
peptide: Ac-MWTICNNWH[dA]CWP-NH2
modifications: disulfide 5-11
SMILES: CC[C@H](C)[C@H](NC(=O)[C@@H](NC(=O)[C@H](Cc1c[nH]c2ccccc12)NC(=O)[C@H](CCSC)NC(C)=O)[C@@H](C)O)C(=O)N[C@H]1CSSC[C@@H](C(=O)N[C@@H](Cc2c[nH]c3ccccc23)C(=O)N2CCC[C@H]2C(N)=O)NC(=O)[C@@H](C)NC(=O)[C@H](Cc2c[nH]cn2)NC(=O)[C@H](Cc2c[nH]c3ccccc23)NC(=O)[C@H](CC(N)=O)NC(=O)[C@H](CC(N)=O)NC1=O
B3: SEQ ID NO 84 (peptide)
peptide: Ac-MWTICNNWHDC[dA]P-NH2
modifications: disulfide 5-11
SMILES: CC[C@H](C)[C@H](NC(=O)[C@@H](NC(=O)[C@H](Cc1c[nH]c2ccccc12)NC(=O)[C@H](CCSC)NC(C)=O)[C@@H](C)O)C(=O)N[C@H]1CSSC[C@@H](C(=O)N[C@H](C)C(=O)N2CCC[C@H]2C(N)=O)NC(=O)[C@H](CC(=O)O)NC(=O)[C@H](Cc2c[nH]cn2)NC(=O)[C@H](Cc2c[nH]c3ccccc23)NC(=O)[C@H](CC(N)=O)NC(=O)[C@H](CC(N)=O)NC1=O
B4: SEQ ID NO 86 (peptide)
peptide: Ac-AWTICNNWHDCWP-NH2
modifications: disulfide 5-11
SMILES: CC[C@H](C)[C@H](NC(=O)[C@@H](NC(=O)[C@H](Cc1c[nH]c2ccccc12)NC(=O)[C@H](C)NC(C)=O)[C@@H](C)O)C(=O)N[C@H]1CSSC[C@@H](C(=O)N[C@@H](Cc2c[nH]c3ccccc23)C(=O)N2CCC[C@H]2C(N)=O)NC(=O)[C@H](CC(=O)O)NC(=O)[C@H](Cc2c[nH]cn2)NC(=O)[C@H](Cc2c[nH]c3ccccc23)NC(=O)[C@H](CC(N)=O)NC(=O)[C@H](CC(N)=O)NC1=O
B5: SEQ ID NO 87 (peptide)
peptide: Ac-MWAICNNWHDCWP-NH2
modifications: disulfide 5-11
SMILES: CC[C@H](C)[C@H](NC(=O)[C@H](C)NC(=O)[C@H](Cc1c[nH]c2ccccc12)NC(=O)[C@H](CCSC)NC(C)=O)C(=O)N[C@H]1CSSC[C@@H](C(=O)N[C@@H](Cc2c[nH]c3ccccc23)C(=O)N2CCC[C@H]2C(N)=O)NC(=O)[C@H](CC(=O)O)NC(=O)[C@H](Cc2c[nH]cn2)NC(=O)[C@H](Cc2c[nH]c3ccccc23)NC(=O)[C@H](CC(N)=O)NC(=O)[C@H](CC(N)=O)NC1=O
B6: SEQ ID NO 88 (peptide)
peptide: Ac-MWTACNNWHDCWP-NH2
modifications: disulfide 5-11
SMILES: CSCC[C@H](NC(C)=O)C(=O)N[C@@H](Cc1c[nH]c2ccccc12)C(=O)N[C@H](C(=O)N[C@@H](C)C(=O)N[C@H]1CSSC[C@@H](C(=O)N[C@@H](Cc2c[nH]c3ccccc23)C(=O)N2CCC[C@H]2C(N)=O)NC(=O)[C@H](CC(=O)O)NC(=O)[C@H](Cc2c[nH]cn2)NC(=O)[C@H](Cc2c[nH]c3ccccc23)NC(=O)[C@H](CC(N)=O)NC(=O)[C@H](CC(N)=O)NC1=O)[C@@H](C)O
B7: SEQ ID NO 89 (peptide)
peptide: Ac-MWTICANWHDCWP-NH2
modifications: disulfide 5-11
SMILES: CC[C@H](C)[C@H](NC(=O)[C@@H](NC(=O)[C@H](Cc1c[nH]c2ccccc12)NC(=O)[C@H](CCSC)NC(C)=O)[C@@H](C)O)C(=O)N[C@H]1CSSC[C@@H](C(=O)N[C@@H](Cc2c[nH]c3ccccc23)C(=O)N2CCC[C@H]2C(N)=O)NC(=O)[C@H](CC(=O)O)NC(=O)[C@H](Cc2c[nH]cn2)NC(=O)[C@H](Cc2c[nH]c3ccccc23)NC(=O)[C@H](CC(N)=O)NC(=O)[C@H](C)NC1=O
B8: SEQ ID NO 68 (peptide)
peptide: Ac-WTICADWAQCWP-NH2
modifications: disulfide 4-10
SMILES: CC[C@H](C)[C@H](NC(=O)[C@@H](NC(=O)[C@H](Cc1c[nH]c2ccccc12)NC(C)=O)[C@@H](C)O)C(=O)N[C@H]1CSSC[C@@H](C(=O)N[C@@H](Cc2c[nH]c3ccccc23)C(=O)N2CCC[C@H]2C(N)=O)NC(=O)[C@H](CCC(N)=O)NC(=O)[C@H](C)NC(=O)[C@H](Cc2c[nH]c3ccccc23)NC(=O)[C@H](CC(=O)O)NC(=O)[C@H](C)NC1=O
B9: SEQ ID NO 70 (peptide)
peptide: Ac-MWKICSDWQNCWP-NH2
modifications: disulfide 5-11
SMILES: CC[C@H](C)[C@H](NC(=O)[C@H](CCCCN)NC(=O)[C@H](Cc1c[nH]c2ccccc12)NC(=O)[C@H](CCSC)NC(C)=O)C(=O)N[C@H]1CSSC[C@@H](C(=O)N[C@@H](Cc2c[nH]c3ccccc23)C(=O)N2CCC[C@H]2C(N)=O)NC(=O)[C@H](CC(N)=O)NC(=O)[C@H](CCC(N)=O)NC(=O)[C@H](Cc2c[nH]c3ccccc23)NC(=O)[C@H](CC(=O)O)NC(=O)[C@H](CO)NC1=O
B10: SEQ ID NO 71 (peptide)
peptide: Ac-MWHICQEWATCWP-NH2
modifications: disulfide 5-11
SMILES: CC[C@H](C)[C@H](NC(=O)[C@H](Cc1c[nH]cn1)NC(=O)[C@H](Cc1c[nH]c2ccccc12)NC(=O)[C@H](CCSC)NC(C)=O)C(=O)N[C@H]1CSSC[C@@H](C(=O)N[C@@H](Cc2c[nH]c3ccccc23)C(=O)N2CCC[C@H]2C(N)=O)NC(=O)[C@H]([C@@H](C)O)NC(=O)[C@H](C)NC(=O)[C@H](Cc2c[nH]c3ccccc23)NC(=O)[C@H](CCC(=O)O)NC(=O)[C@H](CCC(N)=O)NC1=O
B11: SEQ ID NO 72 (peptide)
peptide: Ac-MWTLCDTWDTCFP-NH2
modifications: disulfide 5-11
SMILES: CSCC[C@H](NC(C)=O)C(=O)N[C@@H](Cc1c[nH]c2ccccc12)C(=O)N[C@H](C(=O)N[C@@H](CC(C)C)C(=O)N[C@H]1CSSC[C@@H](C(=O)N[C@@H](Cc2ccccc2)C(=O)N2CCC[C@H]2C(N)=O)NC(=O)[C@H]([C@@H](C)O)NC(=O)[C@H](CC(=O)O)NC(=O)[C@H](Cc2c[nH]c3ccccc23)NC(=O)[C@H]([C@@H](C)O)NC(=O)[C@H](CC(=O)O)NC1=O)[C@@H](C)O
B12: SEQ ID NO 73 (peptide)
peptide: Ac-MWTLCDNWQTCWP-NH2
modifications: disulfide 5-11
SMILES: CSCC[C@H](NC(C)=O)C(=O)N[C@@H](Cc1c[nH]c2ccccc12)C(=O)N[C@H](C(=O)N[C@@H](CC(C)C)C(=O)N[C@H]1CSSC[C@@H](C(=O)N[C@@H](Cc2c[nH]c3ccccc23)C(=O)N2CCC[C@H]2C(N)=O)NC(=O)[C@H]([C@@H](C)O)NC(=O)[C@H](CCC(N)=O)NC(=O)[C@H](Cc2c[nH]c3ccccc23)NC(=O)[C@H](CC(N)=O)NC(=O)[C@H](CC(=O)O)NC1=O)[C@@H](C)O
B13: SEQ ID NO 74 (peptide)
peptide: Ac-MWQLCEWNNCWPV-NH2
modifications: disulfide 5-10
SMILES: CSCC[C@H](NC(C)=O)C(=O)N[C@@H](Cc1c[nH]c2ccccc12)C(=O)N[C@@H](CCC(N)=O)C(=O)N[C@@H](CC(C)C)C(=O)N[C@H]1CSSC[C@@H](C(=O)N[C@@H](Cc2c[nH]c3ccccc23)C(=O)N2CCC[C@H]2C(=O)N[C@H](C(N)=O)C(C)C)NC(=O)[C@H](CC(N)=O)NC(=O)[C@H](CC(N)=O)NC(=O)[C@H](Cc2c[nH]c3ccccc23)NC(=O)[C@H](CCC(=O)O)NC1=O
B14: SEQ ID NO 75 (peptide)
peptide: Ac-MWVLCEWHECWPG-NH2
modifications: disulfide 5-10
SMILES: CSCC[C@H](NC(C)=O)C(=O)N[C@@H](Cc1c[nH]c2ccccc12)C(=O)N[C@H](C(=O)N[C@@H](CC(C)C)C(=O)N[C@H]1CSSC[C@@H](C(=O)N[C@@H](Cc2c[nH]c3ccccc23)C(=O)N2CCC[C@H]2C(=O)NCC(N)=O)NC(=O)[C@H](CCC(=O)O)NC(=O)[C@H](Cc2c[nH]cn2)NC(=O)[C@H](Cc2c[nH]c3ccccc23)NC(=O)[C@H](CCC(=O)O)NC1=O)C(C)C

Biological target: T1, DLL3 (target ligand immobilized on a SA …)
Assay: SPR, Biacore S200, target ligand on SA chip, 25 C, 1:1 fit
Method: Target ligand was immobilized on a SA sensor chip via streptavidin capture. A reference surface was set up for nonspecific binding and refractive index changes. For analysis of the kinetics of interactions, varying concentrations of peptides were injected at a flow rate of 50 μL/minute using running buffer containing 20 mM phosphate buffer with 2.7 mM KCl, 137 mM NaCl and 0.05% Surfactant P20. Sensorgram curves were fitted with 1:1 binding model, and affinity and kinetic parameters were obtained using either Biacore S200 evaluation software 1.1.1 or Biacore Insight evaluation 4.0.

Binder | Kd [nM]
B1 | 6.5
B2 | 320
B3 | 240
B4 | 7.6
B5 | 53
B6 | 86
B7 | 8.1
B8 | 6.1
B9 | 340
B10 | 47
B11 | 24
B12 | 42
B13 | 110
B14 | 57
